Measured values: the supplement of paper PMC10567573

B1: C10orf62 (parent)
chain: RALEEVEMKLQKNFLTQRENTIAG
B2: NETO1 (parent)
chain: GFSPIIGRFCGQQNPPVIKSSGRF

Variants of: B1
Assay: protein stability index of a GFP-peptide fusion (GPS, HEK-293T) (PSI 1-6); higher = more stable
Details: c terminus: a fixed tail appended
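Note: lentivirally expressed fusions sorted by FACS into six bins by GFP to DsRed ratio, PSI derived from sequencing read proportions per bin multiplied by bin number.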

Protein stability index: each site, then its substitutions
R1: H 3.69, A 3.89, D 4.49, C 1.89, E 4.39, F 3.17, G 4.34

Variants of: B2
Assay: as above
Details: c terminus: a fixed tail appended

Protein stability index: each site, then its substitutions
S21: L 1.75, V 2.15, G 2.53, E 2.22, N 2.09, A 2.88, F 1.68, Q 2.08, M 2.18, P 2.25, K 2.22, Y 2.36
I5: H 2.59, W 1.42, R 2.79, T 2.36, P 2.79, A 2.05, M 2.19, D 2.92, G 2.31, C 2.12, Q 2.52, S 2.62, Y 2.36
Q13: S 1.63, L 2.3, N 2.31, V 2.36, A 1.83, E 2.22, D 1.96, K 1.88, F 1.75, R 2.64, P 2.31, W 1.61, G 1.89, Y 2.22, T 3.12
C10: D 2.71, N 3.13, Q 2.4, E 3.76, G 3.05, I 2.86, A 3.07, R 2.63, H 2.38, S 2.9, L 2.79, M 2.27, T 3.29, K 2.93, V 2.46, F 2.51
G1: Q 2.03, P 2.25, T 1.8, C 1.6, Y 1.93, S 2.04, E 1.7, R 1.98, F 1.86, W 2.02, K 2.18, D 1.6, A 2.17, L 2.27, M 1.98, H 1.66, I 2, V 1.93, N 1.85
I18: Y 2.43, S 2.65, L 2.17, R 3.13, G 2.24, V 3.01, P 2.92, C 2.65, H 1.76, T 2.15, D 2.73, E 2.61, M 2.17, N 3.43
F2: C 2.73, T 2.46, N 2.78, P 2.5, A 2.35, R 2.16, D 2.68, Q 2.91, L 2.55, I 2.25, V 2.13, M 2
K19: C 1.93, H 1.64, V 1.48, G 3.23, M 2.58, R 1.85, Q 1.42, Y 1.91, A 2.27, P 2.37, W 1.78, F 1.69
N14: G 2.19, Q 3.08, R 2.12, E 2.38, V 1.24, H 2.18, W 1.87, K 2.04, P 2.21, F 2.26, A 2.25, S 2.35, I 1.92
P4: Q 1.91, A 2.12, F 2.09, G 1.74, V 1.87, N 1.69, D 1.57, S 1.99, T 1.26, C 1.88, H 2.05
P15: M 1.99, S 1.93, Y 2.1, I 2.1, Q 1.96, N 2.52, G 2.79, W 2.13, K 1.99, H 2.01, R 1.65, D 2.4, F 2.34, C 2.19
R8: N 2.04, Q 2.19, F 1.62, W 1.93, A 2.72, G 2.16, E 3.19, I 2.43, P 2.61, L 1.83, C 1.61, Y 1.83, K 2.19, D 2.63, V 2.23
F9: N 2.42, L 2.49, V 2.66, M 2.17, H 1.69, C 2.06, K 2.49, T 1.75, R 2.07, W 2.27, S 1.98, E 3.73, A 2.87
Q12: K 2.33, H 2.3, L 1.75, E 2.35, R 1.78, V 2.15, N 2.35, G 2.26, F 1.8, I 2.16, T 2.26, Y 2.01, A 1.57, M 1.94, P 2.75, D 2.53
V17: N 2.5, C 1.62, L 1.66, D 2.75, T 2.05, M 2.88, S 2.3, Y 2.12, K 2.5, W 2.42, P 2.22, E 2.54, F 1.66
G22: N 2.2, C 1.97, W 2.14, T 2.11, S 2, K 2.54, M 1.65, V 1.63, F 1.82, L 2.81, Q 2.35, I 1.73, A 1.87, R 2.19, E 1.63, D 2.06
S20: Q 2.67, M 1.66, N 2.45, I 1.58, F 2.26, L 2.59, A 2.67, P 2.45, Y 1.43, C 2.18, K 2.65, R 2.44, V 1.68, D 1.55, G 1.9, E 2.11, H 2.16
P16: E 2.58, Y 2.24, S 2.05, A 2.03, T 2.23, F 1.85, C 2.02, K 2.03, H 2.18, D 2.1, W 1.32
G7: I 2.88, V 1.83, L 1.85, D 2.66, W 1.42, S 2.3, R 2.25, E 2.39, A 1.73, F 2.03
S3: K 2.47, M 1.84, L 1.68, I 1.71, T 2.4, D 2.41, Q 2.49, C 1.22, N 2.08, E 2.78, W 1.75, V 2.03
G11: M 1.51, R 1.63, C 1.6, L 2.31, S 2.38, E 2.54, F 2.03, D 2.76, A 2.01, N 2.17, Y 1.89, Q 2.38, K 1.91, H 1.91, T 2.58, I 1.83
R23: Q 1.56, M 1.96, D 2.3, F 1.89, N 2.09, C 1.44, A 1.35, G 1.67, W 2.26, P 3.38, Y 2.6, S 1.94, E 2.04, L 2.35, V 2.22, I 1.65
F24: M 1.97, A 2.42, K 3.64, I 2.23, S 3.88, D 2.98, Q 3, E 2.76, V 2.42, N 2.64, W 1.6
I6: E 3.28, G 2.58, P 2.95, A 2.1, N 2.37, H 2.77, L 2.55, R 3.09, M 2.05, Q 2.38
